The source of these data is patent publication US20190309023A1 (MAINLINE BIOSCIENCES, published 2019).

This assay addresses T1, Human chemokine receptor CXCR4 (human, UniProt P61073 1-352).
T1 construct: whole, on cells; Used as membranes (0.5 ug membrane protein) of Chem-1 cells that express the receptor; also called C-X-C chemokine receptor type 4; fusin
Briefly: competition with [125I]SDF-1α, human CXCR4 membranes (Chem-1 cells). As for the experimental part: Human chemokine receptor CXCR4 expressed in Chem-1 cells were used in modified HEPES buffer pH 7.4. A 0.5 μg (Membrane protein may change from lot to lot, the concentration used were adjusted as necessary), aliquot was incubated with 0.03 nM [¹²⁵I]SDF-1α for 90 minutes at 25° C. Non-specific binding was estimated in the presence of 30 nM SDF-1α. Membranes were filtered and washed, filters were then counted to determine [¹²⁵I]SDF-1α specifically bound. Compounds were screened starting at 10 μM with 11-point dilutions (Valenzuela-Fernandez A, et al. J Biol Chem. 277(18):15677, 2002).

Bridge positions count the residues as written; N and C are the ends. Square brackets hold non-standard residues; d marks the D form. * marks the point of attachment. 2Nal = N[C@@H](Cc1ccc2ccccc2c1)C(=O)O; Palmitoyl = CCCCCCCCCCCCCCCC(=O)*; Lauroyl = CCCCCCCCCCCC(=O)*; hCys = N[C@@H](CCS)C(=O)O; PhAc = O=C(Cc1ccccc1)*; Bz = O=C(c1ccccc1)*; Mpa = O=C(O)CCS; iPr = CC(C)* Where only a bound is given, the exact number is not on record here.

T1 sequence (P61073 whole entry): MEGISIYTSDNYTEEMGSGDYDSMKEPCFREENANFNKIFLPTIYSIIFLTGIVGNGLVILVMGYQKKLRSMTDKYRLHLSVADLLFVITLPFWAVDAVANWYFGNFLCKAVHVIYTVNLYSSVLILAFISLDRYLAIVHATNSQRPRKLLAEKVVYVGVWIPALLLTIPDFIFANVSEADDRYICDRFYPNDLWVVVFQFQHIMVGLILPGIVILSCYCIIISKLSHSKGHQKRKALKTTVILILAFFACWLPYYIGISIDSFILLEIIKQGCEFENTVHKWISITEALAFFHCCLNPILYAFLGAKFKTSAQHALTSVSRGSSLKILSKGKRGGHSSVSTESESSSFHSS

B1: Cyclo[Mpa-Tyr-Lys(iPr)-(D-Arg)-2Nal-Gly-Cys]-Arg-Gly-(D-Phe)-Gly-NH2 (peptide)
peptide: [Mpa]YK(iPr)[dR][2Nal]GCRG[dF]G-NH2
modifications: disulfide 1-7; also: acetate salt
notes: Synthetic cyclic peptide, acetate salt; also called MLB-002
As usually defined, the IC50 is the concentration that inhibits the measured activity by half. B1: the “Binding Kb” value was determined as 0.28 nM and the IC50 amounted to 0.92 nM.

B2: Cyclo[Mpa-Tyr-Arg-(D-Arg)-2Nal-Gly-Cys]-Arg-Gly-(D-Phe)-Gly-NH2 (peptide)
peptide: [Mpa]YR[dR][2Nal]GCRG[dF]G-NH2
modifications: disulfide 1-7; also: acetate salt
notes: Synthetic cyclic peptide, acetate salt; also called MLB-001
On to B2, for which the “Binding Kb” value came out at 7.3 nM and the IC50 came to 24 nM.

B3: Cyclo[Mpa-Arg-Tyr-Arg-2Nal-Gly-Cys]-Arg-Gly-(D-Phe)-Gly-NH2 (peptide)
peptide: [Mpa]RYR[2Nal]GCRG[dF]G-NH2
modifications: disulfide 1-7; also: acetate salt
notes: Synthetic cyclic peptide, acetate salt; also called MLB-011
In the case of B3, the “Binding Kb” value was over 1000 nM.

B4: Ac-cyclo[hCys-Tyr-Lys(iPr)-(D-Arg)-2Nal-Gly-Cys]-Lys(iPr)-Gly-NH2 (peptide)
peptide: Ac-[hCys]YK(iPr)[dR][2Nal]GCK(iPr)G-NH2
modifications: disulfide 1-7; also: acetate salt
notes: Synthetic cyclic peptide, acetate salt; also called MLB-010
As to B4, the “Binding Kb” value was 0.17 nM and the IC50 is 0.56 nM. As for Ac-CYK(iPr)[dR][2Nal]GCK(iPr)G-NH2 (linker 1-7 via 1,2‑bisbromomethyl benzene; also: acetate salt, Acetate salt) [MLB-032], the “Binding Kb” value stood at 0.12 nM and the IC50 was 0.4 nM.

B5: Cyclo[Mpa-Tyr-Lys(iPr)-(D-Arg)-2Nal-Gly-Cys]-Lys(iPr)-Gly-2Nal-Gly-NH2 (peptide)
peptide: [Mpa]YK(iPr)[dR][2Nal]GCK(iPr)G[2Nal]G-NH2
modifications: disulfide 1-7; also: acetate salt
notes: Synthetic cyclic peptide, acetate salt; also called MLB-008
Turning to B5, the “Binding Kb” value is 0.29 nM and the IC50 turned out to be 0.95 nM. For Bz-CYK(iPr)[dR][2Nal]GCK(iPr)G-NH2 (linker 1-7 via 1,2‑bisbromomethyl benzene; also: acetate salt, Acetate salt) [MLB-030] the same measures were 0.39 nM and 1.3 nM.

B6: Benzoyl-cyclo[Cys-Tyr-Lys(iPr)-(D-Arg)-2Nal-Gly-Cys]-Lys(iPr)-Gly-NH2 (peptide)
peptide: Bz-CYK(iPr)[dR][2Nal]GCK(iPr)G-NH2
modifications: disulfide 1-7; also: acetate salt
notes: Synthetic cyclic peptide, acetate salt; also called MLB-023
For the molecule B6, the “Binding Kb” value was 1 nM and the IC50 amounted to 3.4 nM.

B7: Ac-cyclo[hCys-Tyr-Lys(iPr)-(D-Arg)-2Nal-Gly-Cys]-Lys(iPr)-Gly-NH(Et) (peptide)
peptide: Ac-[hCys]YK(iPr)[dR][2Nal]GCK(iPr)G-NHEt
modifications: disulfide 1-7; also: acetate salt
notes: Synthetic cyclic peptide, acetate salt; also called MLB-026
With B7, the “Binding Kb” value turned out to be 0.27 nM and the IC50 was found to be 0.89 nM.

B8: Cyclo[Mpa-Tyr-Lys(iPr)-(D-Arg)-2Nal-Gly-Cys]-Lys(iPr)-Gly-NH(Et) (peptide)
peptide: [Mpa]YK(iPr)[dR][2Nal]GCK(iPr)G-NHEt
modifications: disulfide 1-7; also: acetate salt
notes: Synthetic cyclic peptide, acetate salt; also called MLB-014
Consider B8, for which the “Binding Kb” value was 0.19 nM and the IC50 was found to be 0.64 nM.

B9: Cyclo[Mpa-Tyr-Lys(iPr)-(D-Arg)-2Nal-Gly-Cys]-Lys(iPr)-Lys(palmitoyl)-NH(Et) (peptide)
peptide: [Mpa]YK(iPr)[dR][2Nal]GCK(iPr)K(Palmitoyl)-NHEt
modifications: disulfide 1-7; also: acetate salt
notes: Synthetic cyclic peptide, acetate salt; also called MLB-029
On to B9, for which the “Binding Kb” value came out at 3.2 nM and the IC50 was determined as 11 nM.

B10: Cyclo[Mpa-Tyr-Lys(iPr)-(D-Arg)-2Nal-Gly-Cys]-Lys(iPr)-Lys(Ac)-NH(Et) (peptide)
peptide: [Mpa]YK(iPr)[dR][2Nal]GCK(iPr)K(Ac)-NHEt
modifications: disulfide 1-7; also: acetate salt
notes: Synthetic cyclic peptide, acetate salt; also called MLB-027
Turning to B10, the “Binding Kb” value is 0.15 nM and the IC50 was 0.48 nM.

B11: Cyclo[Mpa-Tyr-Lys(iPr)-(D-Arg)-2Nal-Gly-Cys]-Lys(iPr)-Lys(lauroyl)-NH(Et) (peptide)
peptide: [Mpa]YK(iPr)[dR][2Nal]GCK(iPr)K(Lauroyl)-NHEt
modifications: disulfide 1-7; also: acetate salt
notes: Synthetic cyclic peptide, acetate salt; also called MLB-028
As to B11, the “Binding Kb” value amounted to 2.5 nM and the IC50 stood at 8.2 nM.

B12: Benzoyl-cyclo[hCys-Tyr-Lys(iPr)-(D-Arg)-2Nal-Gly-Cys]-Lys(iPr)-Gly-NH(Et) (peptide)
peptide: Bz-[hCys]YK(iPr)[dR][2Nal]GCK(iPr)G-NHEt
modifications: disulfide 1-7; also: acetate salt
notes: Synthetic cyclic peptide, acetate salt; also called MLB-024
For the molecule B12, the “Binding Kb” value is 0.39 nM and the IC50 stood at 1.3 nM.

B13: Phenylacetyl-cyclo[hCys-Tyr-Lys(iPr)-(D-Arg)-2Nal-Gly-Cys]-Lys(iPr)-Gly-NH2 (peptide)
peptide: PhAc-[hCys]YK(iPr)[dR][2Nal]GCK(iPr)G-NH2
modifications: disulfide 1-7; also: acetate salt
notes: Synthetic cyclic peptide, acetate salt; also called MLB-025
With B13, the “Binding Kb” value was found to be 0.25 nM and the IC50 was found to be 0.84 nM.

B14: Benzoyl-cyclo[hCys-Tyr-Lys(iPr)-(D-Arg)-2Nal-Gly-Cys]-Lys(iPr)-Gly-NH2 (peptide)
peptide: Bz-[hCys]YK(iPr)[dR][2Nal]GCK(iPr)G-NH2
modifications: disulfide 1-7; also: acetate salt
notes: Synthetic cyclic peptide, acetate salt; also called MLB-021
Regarding B14, the “Binding Kb” value amounted to 0.13 nM and the IC50 was determined as 0.42 nM.

B15: Cyclo[Mpa-Tyr-Lys(iPr)-(D-Arg)-2Nal-Gly-Cys]-(D-Arg)-Gly-(D-Phe)-Gly-NH2 (peptide)
peptide: [Mpa]YK(iPr)[dR][2Nal]GC[dR]G[dF]G-NH2
modifications: disulfide 1-7; also: acetate salt
notes: Synthetic cyclic peptide, acetate salt; also called MLB-004
With B15, the “Binding Kb” value was 0.21 nM and the IC50 worked out at 0.7 nM. For Ac-CYK(iPr)[dR][2Nal]GCK(iPr)G-NH2 (linker 1-7 via 1,3‑bisbromomethyl benzene; also: acetate salt, Acetate salt) [MLB-033] the same measures were 0.99 nM and 3.3 nM.

B16: Benzoyl-cyclo[Cys-Tyr-Lys(iPr)-(D-Arg)-2Nal-Gly-hCys]-Lys(iPr)-Gly-NH2 (peptide)
peptide: Bz-CYK(iPr)[dR][2Nal]G[hCys]K(iPr)G-NH2
modifications: disulfide 1-7; also: acetate salt
notes: Synthetic cyclic peptide, acetate salt; also called MLB-022
On to B16, for which the “Binding Kb” value is 0.21 nM and the IC50 came to 0.71 nM.
